According to paper PMC13178787 (Nature, 2024):

T1: GST-tagged dystrophin (3049–3299) (mouse, UniProt P11531 3049-3299)
T1 sequence (looked up): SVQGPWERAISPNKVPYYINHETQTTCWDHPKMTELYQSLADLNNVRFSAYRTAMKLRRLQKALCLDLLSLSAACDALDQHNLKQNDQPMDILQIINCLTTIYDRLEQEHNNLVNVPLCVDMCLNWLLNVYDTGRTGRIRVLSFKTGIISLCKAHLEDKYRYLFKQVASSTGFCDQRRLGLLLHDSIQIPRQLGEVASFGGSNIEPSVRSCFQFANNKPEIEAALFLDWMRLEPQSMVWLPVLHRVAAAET

B1: β-dystroglycan (natural protein, mouse (endogenous in skeletal muscle), UniProt Q62165 652-893, looked up)
chain: SIVVEWTNNTLPLEPCPKEQIIGLSRRIADENGKPRPAFSNALEPDFKALSIAVTGSGSCRHLQFIPVAPPSPGSSAAPATEVPDRDPEKSSEDDVYLHTVIPAVVVAAILLIAGIIAMICYRKKRKGKLTLEDQATFIKKGVPIIFADELDDSKPPPSSSMPLILQEEKAPLPPPEYPNQSMPETTPLNQDTVGEYTPLRDEDPNAPPYQPPPPFTAPMEGKGSRPKNMTPYRSPPPYVPP
modifications: glycosylated at N659
B2: δ-sarcoglycan (natural protein, mouse (endogenous in skeletal muscle), UniProt P82347 1-289, looked up)
chain: MPQEQYSHHRSTMPSSEGPHIYKVGIYGWRKRCLYFFVLLLMILILVNLAMTIWILKVMNFTIDGMGNLRITEKGLKLEGDSEFLQPLYAKEIKSRPGNALYFKSARNVTVNILNDQTKVLTQLVTGPKAVEAYGKRFEVKTVSGKLLFSADDSEVVVGAERLRVLGAEGTVFPKSIETPNVRADPFKELRLESPTRSLVMEAPKGVEINAEAGNMEAICRSELRLESKDGEIKLDAAKIKLPRLPRGSYTPTGTRQKVFEVCVCANGRLFLSQAGTGSTCQINTSVCL
modifications: glycosylated at N108
B3: 6×His-tagged dystrobrevin (1–237) (domain or fragment, mouse, UniProt Q9D2N4 1-237, looked up)
chain: MIEDSGKRGNTMAERRQLFAEMRAQDLDRIRLSTYRTACKLRFVQKKCNLHLVDIWNVIEALRENALNNLDPNIELNVARLEAVLSTIFYQLNKRMPTTHQIHVEQSISLLLNFLLAAFDPEGHGKISVFAVKMALATLCGGKIMDKLRYIFSMISDSSGVMVYGRYDQFLREVLKLPTAVFEGPSFGYTEQSARSCFSQQKKVTLNGFLDTLMSDPPPQCLVWLPLLHRLANVENV
B4: sarcospan (natural protein, mouse (endogenous in skeletal muscle), UniProt Q62147 1-216, looked up)
chain: MGRKPSPRAQELPEEEARTCCGCRFPLLLALLQLALGIAVTVLGFLMASISPSLLVRDTPFWAGSIVCVVAYLGLFMLCVSYQVDERTCVQFSMKVFYFLLSALGLMVCMLAVAFAAHHYSLLAQFTCETSLDSCQCKLPSSEPLSRAFVYRDVTDCTSVTGTFKLFLIIQMVLNLVCGLVCLLACFVMWKHRYQVFYVGVGLRSLMASDGQLPKA
B5: dystrobrevin (natural protein, mouse (endogenous in skeletal muscle), UniProt Q9D2N4 1-746, looked up)
chain: MIEDSGKRGNTMAERRQLFAEMRAQDLDRIRLSTYRTACKLRFVQKKCNLHLVDIWNVIEALRENALNNLDPNIELNVARLEAVLSTIFYQLNKRMPTTHQIHVEQSISLLLNFLLAAFDPEGHGKISVFAVKMALATLCGGKIMDKLRYIFSMISDSSGVMVYGRYDQFLREVLKLPTAVFEGPSFGYTEQSARSCFSQQKKVTLNGFLDTLMSDPPPQCLVWLPLLHRLANVENVFHPVECSYCHSESMMGFRYRCQQCHNYQLCQDCFWRGHAGGSHSNQHQMKEYTSWKSPAKKLTNALSKSLSCASSREPLHPMFPDQPEKPLNLAHIVPPRPVTSMNDTLFSHSVPSSGSPFITRSSPPKDSEVEQNKMLARAAPAFLKGRGIQYSLNVADRLADEHVLIGLYVNMLRNDPPCMLESSNRLDEEHRLIARYAARLAAESSSSQPTQQRSAPDISFTIDANKQQRQLIAELENKNREILQEIQRLRVEHEQASQPTPEKAQQNPTLLAELRLLRQRKDELEQRMSALQESRRELMVQLEGLMKLLKEEELKQGTQGASSPRSSPSHTISRPIPMPIRSASACPTPTHTPQDSLTGVGGDVQEAFAQSSRRNLRSDLLVAADSITNTMSSLVKELNSEVASETESTVDSEFSRPQFEDLAPSPTSEKAFLAQIHSRKPGYIHGGAASTTHGDMVPEDGDPYTQPEDGNYENESVRQLENELQLEEYLKQKLQDEAYQVSLQG
B6: β-sarcoglycan (natural protein, mouse (endogenous in skeletal muscle), UniProt P82349 1-320, looked up)
chain: MAAAAAAAAATEQQGSNGPVKKSMREKAVERRNVNKEHNSNFKAGYIPIDEDRLHKTGLRGRKGNLAICVIVLLFILAVINLLITLVIWAVIRIGPNGCDSMEFHESGLLRFKQVSDMGVIHPLYKSTVGGRRNENLVITGNNQPIVFQQGTTKLSVEKNKTSITSDIGMQFFDPRTHNILFSTDYETHEFHLPSGVKSLNVQKASTERITSNATSDLNIKVDGRAIVRGNEGVFIMGKTIEFHMGGDVELKAENSIILNGTVMVSPTRLPSSSSGDQSGSGDWVRYKLCMCADGTLFKVQVTGHNMGCQVSDNPCGNTH
modifications: glycosylated at N160, N213, N260

Legend:
dystrophin = dystrophin (mouse (endogenous in skeletal muscle), UniProt P11531 1-3678); experiment: cryo-EM structure
β-sarcoglycan = target: B6; experiment: cryo-EM structure
[1] = target: T1, GST-tagged dystrophin (3049–3299); experiment: SEC
β-dystroglycan = target: B1; experiment: cryo-EM structure

Chain of dystrophin (P11531 whole entry): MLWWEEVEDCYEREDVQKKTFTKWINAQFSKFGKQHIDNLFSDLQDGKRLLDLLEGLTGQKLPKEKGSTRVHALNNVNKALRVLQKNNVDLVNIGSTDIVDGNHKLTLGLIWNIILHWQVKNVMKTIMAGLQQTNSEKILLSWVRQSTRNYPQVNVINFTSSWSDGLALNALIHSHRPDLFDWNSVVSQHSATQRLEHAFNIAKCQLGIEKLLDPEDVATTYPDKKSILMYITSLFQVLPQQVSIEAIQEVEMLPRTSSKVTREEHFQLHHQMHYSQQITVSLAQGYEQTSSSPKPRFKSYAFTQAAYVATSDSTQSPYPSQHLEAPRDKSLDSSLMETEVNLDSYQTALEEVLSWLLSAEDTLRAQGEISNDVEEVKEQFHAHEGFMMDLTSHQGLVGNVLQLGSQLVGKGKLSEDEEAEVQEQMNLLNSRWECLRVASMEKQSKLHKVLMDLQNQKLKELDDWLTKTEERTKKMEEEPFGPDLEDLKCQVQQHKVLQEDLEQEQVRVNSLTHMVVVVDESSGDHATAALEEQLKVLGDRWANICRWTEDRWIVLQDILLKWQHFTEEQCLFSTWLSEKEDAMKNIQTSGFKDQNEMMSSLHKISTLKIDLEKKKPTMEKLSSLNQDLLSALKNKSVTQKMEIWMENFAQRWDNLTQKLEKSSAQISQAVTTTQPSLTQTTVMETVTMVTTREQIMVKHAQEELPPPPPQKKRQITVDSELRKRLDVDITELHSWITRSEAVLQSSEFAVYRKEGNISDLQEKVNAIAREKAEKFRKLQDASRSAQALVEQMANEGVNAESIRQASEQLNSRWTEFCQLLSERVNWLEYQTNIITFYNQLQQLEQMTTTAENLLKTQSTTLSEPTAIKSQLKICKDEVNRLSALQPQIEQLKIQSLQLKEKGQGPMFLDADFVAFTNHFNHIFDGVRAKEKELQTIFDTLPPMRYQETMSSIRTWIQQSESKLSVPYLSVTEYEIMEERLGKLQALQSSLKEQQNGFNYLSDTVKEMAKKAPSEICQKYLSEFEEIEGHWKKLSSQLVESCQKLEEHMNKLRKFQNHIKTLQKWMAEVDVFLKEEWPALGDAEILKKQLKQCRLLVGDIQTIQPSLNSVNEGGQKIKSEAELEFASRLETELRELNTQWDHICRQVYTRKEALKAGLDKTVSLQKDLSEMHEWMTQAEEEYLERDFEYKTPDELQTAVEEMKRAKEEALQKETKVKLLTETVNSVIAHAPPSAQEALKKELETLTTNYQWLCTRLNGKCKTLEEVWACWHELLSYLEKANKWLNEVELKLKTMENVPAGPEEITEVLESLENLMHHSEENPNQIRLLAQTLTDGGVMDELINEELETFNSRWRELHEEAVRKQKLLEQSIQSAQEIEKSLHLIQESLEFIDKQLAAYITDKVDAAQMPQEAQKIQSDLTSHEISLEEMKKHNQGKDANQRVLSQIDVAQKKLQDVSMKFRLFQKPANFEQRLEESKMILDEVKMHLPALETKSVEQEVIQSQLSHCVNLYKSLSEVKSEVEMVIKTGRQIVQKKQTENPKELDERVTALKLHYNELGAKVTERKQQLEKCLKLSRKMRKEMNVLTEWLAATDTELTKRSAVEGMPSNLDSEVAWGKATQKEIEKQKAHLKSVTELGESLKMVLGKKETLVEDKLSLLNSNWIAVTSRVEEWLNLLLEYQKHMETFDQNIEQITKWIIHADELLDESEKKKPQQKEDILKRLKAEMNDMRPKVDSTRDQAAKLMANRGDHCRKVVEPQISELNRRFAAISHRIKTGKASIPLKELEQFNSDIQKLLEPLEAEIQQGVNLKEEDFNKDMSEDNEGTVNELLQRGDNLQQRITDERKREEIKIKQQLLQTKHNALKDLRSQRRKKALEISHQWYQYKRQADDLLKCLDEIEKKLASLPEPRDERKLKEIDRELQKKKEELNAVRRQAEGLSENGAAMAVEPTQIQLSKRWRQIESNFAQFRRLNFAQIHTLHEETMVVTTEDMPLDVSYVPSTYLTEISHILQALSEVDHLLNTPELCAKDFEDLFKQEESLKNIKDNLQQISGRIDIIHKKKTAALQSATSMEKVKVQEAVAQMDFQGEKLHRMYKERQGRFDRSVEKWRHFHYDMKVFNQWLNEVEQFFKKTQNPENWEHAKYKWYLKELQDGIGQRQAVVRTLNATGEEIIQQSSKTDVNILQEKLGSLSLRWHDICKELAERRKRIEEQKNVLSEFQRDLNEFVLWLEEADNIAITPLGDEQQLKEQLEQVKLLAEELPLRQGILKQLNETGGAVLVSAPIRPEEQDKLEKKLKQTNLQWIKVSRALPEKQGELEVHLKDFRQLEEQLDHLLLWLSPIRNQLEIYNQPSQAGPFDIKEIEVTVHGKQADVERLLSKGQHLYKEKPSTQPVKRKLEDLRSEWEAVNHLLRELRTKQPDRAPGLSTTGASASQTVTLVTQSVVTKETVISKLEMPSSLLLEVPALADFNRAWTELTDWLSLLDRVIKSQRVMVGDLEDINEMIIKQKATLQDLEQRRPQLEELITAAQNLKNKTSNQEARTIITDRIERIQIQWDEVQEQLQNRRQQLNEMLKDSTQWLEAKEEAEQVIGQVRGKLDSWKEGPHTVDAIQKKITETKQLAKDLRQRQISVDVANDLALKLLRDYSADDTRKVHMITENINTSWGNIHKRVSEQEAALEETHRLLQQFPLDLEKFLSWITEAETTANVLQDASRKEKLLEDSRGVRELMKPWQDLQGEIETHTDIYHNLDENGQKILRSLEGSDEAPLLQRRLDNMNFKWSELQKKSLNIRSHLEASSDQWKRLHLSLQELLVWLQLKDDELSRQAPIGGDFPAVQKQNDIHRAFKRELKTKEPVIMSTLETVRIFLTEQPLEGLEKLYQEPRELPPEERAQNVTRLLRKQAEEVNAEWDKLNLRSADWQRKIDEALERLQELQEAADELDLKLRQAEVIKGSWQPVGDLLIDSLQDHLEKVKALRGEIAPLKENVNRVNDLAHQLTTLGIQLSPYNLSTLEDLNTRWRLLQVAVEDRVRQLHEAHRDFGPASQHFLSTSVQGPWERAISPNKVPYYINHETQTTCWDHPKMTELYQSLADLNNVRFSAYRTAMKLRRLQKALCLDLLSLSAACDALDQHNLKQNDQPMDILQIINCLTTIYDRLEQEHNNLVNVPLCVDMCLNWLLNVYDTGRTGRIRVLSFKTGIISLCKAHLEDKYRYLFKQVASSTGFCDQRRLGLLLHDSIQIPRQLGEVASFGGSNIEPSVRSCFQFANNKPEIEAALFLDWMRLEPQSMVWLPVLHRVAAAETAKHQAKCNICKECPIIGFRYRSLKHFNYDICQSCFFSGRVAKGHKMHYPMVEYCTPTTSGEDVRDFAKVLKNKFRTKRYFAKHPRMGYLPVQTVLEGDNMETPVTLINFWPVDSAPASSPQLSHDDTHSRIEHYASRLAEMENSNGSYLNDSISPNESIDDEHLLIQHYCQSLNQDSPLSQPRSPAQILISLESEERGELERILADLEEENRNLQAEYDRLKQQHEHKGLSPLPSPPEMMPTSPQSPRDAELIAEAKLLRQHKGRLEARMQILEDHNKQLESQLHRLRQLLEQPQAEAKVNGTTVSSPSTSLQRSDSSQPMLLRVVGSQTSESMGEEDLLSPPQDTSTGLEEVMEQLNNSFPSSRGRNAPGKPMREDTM

binding result (dystrophin) | Binder | further results
binds | B1 | –
– | B2 | binding result (β-sarcoglycan): binds
– | B3 | binding result [1]: binds
– | B4 | binding result (β-dystroglycan): binds
binds | B5 | –
binds | B6 | –
